Experimental findings from patent US20210277141A1 (ORIMABS, published 2021) are described below.

Experiment [1] concerns the target T1, Prostate specific membrane antigen (PSMA) expressed on cell surface (human, UniProt Q04609 1-750). Briefly: cell-based or functional assay.
For experiment [2], the target named is T1, Prostate specific membrane antigen …. As to the kind of experiment: cell ELISA on fixed C4-2 cells, 100 nM to 0.19 pM, HRP anti-human IgG Fc.
For experiment [3] the target is unchanged. As to the kind of experiment: cell ELISA on fixed C4-2 cells; 3-fold dilutions from 100 nM to 0.19 pM; detection with HRP anti-human IgG Fc, TMB. In general terms: An ELISA detects its analyte on a solid surface through an enzyme-linked reagent.
Experiment [4] addresses T2, biotinylated recombinant extracellular domain of human PSMA (human, UniProt Q04609 44-750, biotinylated with EZ-Link Sulfo-NHS-Biotin (protein:biotin 1:20); residues not stated).
T2 construct: Bought from R&D systems; also called biotinylated PSMA; biotinylated PSMA protein
Briefly: capture ELISA: scFv (100 nM to 0.137 nM) captured on anti-Flag, 0.5 µg/ml biotinylated PSMA, streptavidin-HRP; GraphPad Prism. As for the experimental part:
(§1) Briefly, anti-Flag antibody (Sigma) was coated on ELISA plate at 4° C. overnight in PBS. […] Plate was then washed and incubated with biotinylated PSMA and the binding was detected with streptavidin-HRP, and analyzed by colorimetric development using TMB and then stop buffer. Absorbance at OD450 was measured and the affinity was calculated using GraphPad Prism software.
(§2) There is a Flag tag and a V5 tag at the N and C terminus of scFv, and thus antibodies to these tags were used to capture the scFv for ELISA assay. Briefly, anti-Flag antibody (Sigma) was coated on ELISA plate at 1 μg/ml, 50 μl/well at 4° C. overnight in PBS. […] Plate was washed 6 times with PBST and then incubated with 0.5 μg/ml biotinylated PSMA in PBS™ for 1 more hour at RT. After 6 washes, plate was incubated with 1:1000 diluted streptavidin-HRP (BD Bioscience) in PBS™ at RT for 30 min. Plate was washed again for 6 times and incubated with TMB for 20 min at RT, colorimertric reaction was stopped with stop buffer and the absorbance was read at OD450.

Experiment [5] concerns the target T3, PSMA (form not stated; as named in the summary sentence of paragraph 43) (UniProt Q04609 44-750, limits assumed).
T3 construct: The summary sentence gives neither the assay nor the form of PSMA, so the value could not be assigned to m8, m9 or m10; also called prostate specific membrane antigen
Briefly: not stated (summary sentence in the description).

In experiment [6] the target is T2, biotinylated recombinant extracellular …. As to the kind of experiment: capture ELISA: anti-Flag coated, gy1 scFv in 3-fold dilutions, 0.5 ug/ml biotinylated PSMA, streptavidin-HRP, TMB. The protocol: as §1, §2
In experiment [7] the target is T1, Prostate specific membrane antigen …. Briefly: cell ELISA on fixed C4-2 cells; 3-fold dilutions, 1 h, 37 °C; detection with HRP mouse anti-6His, TMB. The protocol: (§3) Briefly, C4-2 cultured in 96-well plate were fixed with 4% paraformaldehyde, blocked with 3% H₂O₂ and 6% bovine serum albumin sequentially. […] Cell binding was detected with HRP-conjugated mouse anti-6His and colorimetric signals were developed by TMB and stopped by STOP buffer.
(§4) The next day, cells were fixed with 4% paraformaldehyde for 20 min before being treated with 3% H₂O₂ for 20 minutes to block endogenous peroxidase followed by blocking with 6% bovine serum albumin for 30 min at room temperature. […] Cells were then washed with PBST and incubated with HRP-conjugated mouse anti-6His antibody (AbD Serotec, Bio-Rad, Oxford, UK) for 1h at room temperature. Colorimetric signals were developed by addition of 3, 3′, 5, 5′-tetramethylbenzidine (TMB, eBioscience, CA, USA) and stopped by incubation with 1 M […] for 15 minutes. The absorbance was measured at 450 nm using a Sunrise microplate reader (Tecan, Groedig, Austria) and the binding curves were analyzed using GraphPad Prism 5.0 software.

Experiment [8] has the same target. Briefly: cell ELISA on fixed C4-2 cells, 8100 nM to 0.005 nM, HRP anti-6His; one-site binding hyperbola. As for the experimental part:
as §3, §4

Broadly, the Kd is the free concentration of one partner at which half of the binding sites on the other are occupied at equilibrium, for simple one-to-one binding. Broadly, the EC50 (read off the curve) is the concentration needed to bring the measured effect to its halfway point.

T1 sequence (Q04609 whole entry): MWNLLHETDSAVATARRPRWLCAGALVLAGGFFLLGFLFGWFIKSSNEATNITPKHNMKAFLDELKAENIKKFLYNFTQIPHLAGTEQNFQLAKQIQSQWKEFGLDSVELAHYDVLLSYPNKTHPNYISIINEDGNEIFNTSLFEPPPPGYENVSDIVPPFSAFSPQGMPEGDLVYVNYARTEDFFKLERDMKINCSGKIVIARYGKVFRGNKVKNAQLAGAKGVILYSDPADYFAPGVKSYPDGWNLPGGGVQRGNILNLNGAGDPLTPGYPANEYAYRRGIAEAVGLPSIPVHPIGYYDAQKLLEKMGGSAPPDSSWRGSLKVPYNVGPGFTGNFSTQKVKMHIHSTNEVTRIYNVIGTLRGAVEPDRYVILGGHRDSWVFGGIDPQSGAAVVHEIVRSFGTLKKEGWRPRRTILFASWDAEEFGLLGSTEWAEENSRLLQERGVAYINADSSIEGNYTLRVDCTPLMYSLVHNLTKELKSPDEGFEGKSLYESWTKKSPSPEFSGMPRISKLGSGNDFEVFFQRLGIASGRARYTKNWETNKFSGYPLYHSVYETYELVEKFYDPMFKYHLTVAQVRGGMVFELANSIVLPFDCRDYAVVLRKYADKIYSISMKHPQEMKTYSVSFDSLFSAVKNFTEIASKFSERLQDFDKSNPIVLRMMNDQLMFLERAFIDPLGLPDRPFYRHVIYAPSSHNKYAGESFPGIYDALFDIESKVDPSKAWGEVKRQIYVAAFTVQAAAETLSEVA
T2 sequence (Q04609 44-750): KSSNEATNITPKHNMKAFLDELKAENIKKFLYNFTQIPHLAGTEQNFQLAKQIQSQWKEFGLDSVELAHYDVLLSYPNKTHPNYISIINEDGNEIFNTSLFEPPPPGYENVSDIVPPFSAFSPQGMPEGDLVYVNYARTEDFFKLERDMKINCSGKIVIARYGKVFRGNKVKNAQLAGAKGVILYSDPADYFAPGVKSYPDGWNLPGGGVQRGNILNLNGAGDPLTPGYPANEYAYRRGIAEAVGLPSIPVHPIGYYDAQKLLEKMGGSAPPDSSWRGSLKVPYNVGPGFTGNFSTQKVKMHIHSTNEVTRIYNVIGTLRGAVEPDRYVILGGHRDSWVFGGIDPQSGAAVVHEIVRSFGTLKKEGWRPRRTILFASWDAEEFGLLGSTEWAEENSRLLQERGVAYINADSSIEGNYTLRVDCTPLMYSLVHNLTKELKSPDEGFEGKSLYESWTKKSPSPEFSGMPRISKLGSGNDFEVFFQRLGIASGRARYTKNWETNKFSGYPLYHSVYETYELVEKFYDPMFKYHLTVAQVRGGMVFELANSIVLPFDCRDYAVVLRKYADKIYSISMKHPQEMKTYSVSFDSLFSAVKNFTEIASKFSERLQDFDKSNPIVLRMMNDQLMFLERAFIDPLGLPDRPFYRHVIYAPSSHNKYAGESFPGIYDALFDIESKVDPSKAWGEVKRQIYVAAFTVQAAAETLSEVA
T3 sequence (Q04609 44-750 limits assumed): as the sequence (Q04609 44-750) above

B1: PSMAb-DM1 (antibody, human IgG1, lambda, V domains shown)
VH: EVQLVESGGALAKPGGSLRLSCAASGFTLSGYAMHWVRQAPGKGLEWVAVISYDGSNKYYADSVKGRFTVSRDNSKNTLFLQMNSLRPEDTAVYYCAKGLTWGLGDNDALDIWGPGTTVTVSS
VL: QSVLTQPPSVSGAPGQSVIISCTGSSSNIGAGSHVHWYQQVPGTAPKLLIYENTNRPSGVPDRFSGSKSGTSGSLAITGLQPEDEADYYCATWDDSLNGVIFGGGTKATVLG
modifications: DM1 through SMCC linker, drug/Ab conjugation ratio 3.3 per antibody; conjugated residues and chain not stated
notes: also called PSMAb-ADC; PSMAb conjugate with DM1
In the case of B1, the “IC50 of cytotoxicity on C4-2 cells (alamarBlue, 4 days)” value (shortened to “IC50 of cytotoxicity on C4-2 cells”) in experiment [1] is 0.12 nM.

B2: PSMAb-MMAF (antibody, human IgG1, lambda, V domains shown)
VH: EVQLVESGGALAKPGGSLRLSCAASGFTLSGYAMHWVRQAPGKGLEWVAVISYDGSNKYYADSVKGRFTVSRDNSKNTLFLQMNSLRPEDTAVYYCAKGLTWGLGDNDALDIWGPGTTVTVSS
VL: QSVLTQPPSVSGAPGQSVIISCTGSSSNIGAGSHVHWYQQVPGTAPKLLIYENTNRPSGVPDRFSGSKSGTSGSLAITGLQPEDEADYYCATWDDSLNGVIFGGGTKATVLG
modifications: MC-vc-PAB-MMAF after partial reduction with TCEP, drug loading 3.03 per antibody; conjugated residues and chain not stated
notes: also called PSMAb-ADC; PSMAb conjugate with MMAF
In the case of B2, the “IC50 of cytotoxicity on C4-2 cells” value in experiment [1] was determined as 0.92 nM.

B3: PSMAb-MMAE (antibody, human IgG1, lambda, V domains shown)
VH: EVQLVESGGALAKPGGSLRLSCAASGFTLSGYAMHWVRQAPGKGLEWVAVISYDGSNKYYADSVKGRFTVSRDNSKNTLFLQMNSLRPEDTAVYYCAKGLTWGLGDNDALDIWGPGTTVTVSS
VL: QSVLTQPPSVSGAPGQSVIISCTGSSSNIGAGSHVHWYQQVPGTAPKLLIYENTNRPSGVPDRFSGSKSGTSGSLAITGLQPEDEADYYCATWDDSLNGVIFGGGTKATVLG
modifications: MC-vc-PAB-MMAE after partial reduction with TCEP, drug loading 3.5 per antibody; conjugated residues and chain not stated
notes: also called PSMAb-ADC; PSMAb conjugate with MMAE
Regarding B3, the “IC50 of cytotoxicity on C4-2 cells” value in experiment [1] came out at 0.59 nM.

B4: PSMAb (full IgG1 antibody engineered from gy1-2 scFv) (antibody, V domains shown)
VH: EVQLVESGGALAKPGGSLRLSCAASGFTLSGYAMHWVRQAPGKGLEWVAVISYDGSNKYYADSVKGRFTVSRDNSKNTLFLQMNSLRPEDTAVYYCAKGLTWGLGDNDALDIWGPGTTVTVSS
VL: QSVLTQPPSVSGAPGQSVIISCTGSSSNIGAGSHVHWYQQVPGTAPKLLIYENTNRPSGVPDRFSGSKSGTSGSLAITGLQPEDEADYYCATWDDSLNGVIFGGGTKATVLG
notes: IgG1 heavy constant region and lambda light constant region; expressed in CHO-S cells; also called PSMAb full antibody
Turning to B4, binding in experiment [2] was put at a Kd of 0.1 nM. The “EC50 (read off the curve)” value in experiment [3] is around 0.1 nM.

B5: gy1 scFv (secreted by yeast strain YVH10) (scFv)
scFv: QSVLTQPPSVSGAPGQSVIISCTGSSSNIGAGSHVHWYQQVPGTAPKLLIYGNTNRPSGVPDRFSGSKSGTSGSLAITGLQPEDEADYYCATWDDSLNGVIFGGGTKVTVLGGSSRSSSSGGGGSGGGGEVQLVESGGALAKPGGSLRLSCAASGSTLSGYAMHWVRQAPGKGLEWVAVISYDGSNKYYADSVKGRFTISRDNSKNTLFLQMNSLRPEDTAVYYCAKGLTWGLGDNDALDIWGPGTTVTVSS
notes: also called scFv gy1; anti-PSMA scFv gy1; not shown: Flag tag at the N terminus; V5 tag at the C terminus; 6xHis tag at the C terminus
For the molecule B5, the Kd was found to be 1.17 nM in experiment [4] and 0.9 nM in experiment [5]. Moreover, the “EC50 (read off the curve)” value in experiment [6] was around 1 nM.

B6: E. coli expressed gy1 scFv (pET302-gy1, BL21) (scFv)
scFv: QSVLTQPPSVSGAPGQSVIISCTGSSSNIGAGSHVHWYQQVPGTAPKLLIYGNTNRPSGVPDRFSGSKSGTSGSLAITGLQPEDEADYYCATWDDSLNGVIFGGGTKVTVLGGSSRSSSSGGGGSGGGGEVQLVESGGALAKPGGSLRLSCAASGSTLSGYAMHWVRQAPGKGLEWVAVISYDGSNKYYADSVKGRFTISRDNSKNTLFLQMNSLRPEDTAVYYCAKGLTWGLGDNDALDIWGPGTTVTVSS
notes: also called E. coli expressed scFv gy1; not shown: His tag (purified on HisTrp HP column, detected with anti-6His)
As for B6, the concentration for a half-maximal effect (EC50 (read off the curve)) in experiment [7] is around 300 nM. The Kd in experiment [8] was found to be 4.13 nM.
